T1: TM4SF19 in which 3HA was tagged at the N-terminus (human TM4SF19, NP_612470.2 isoform 1) (human, UniProt Q96DZ7 1-209)
T1 construct: also called 3HA-TM4SF19; TM4SF19 tagged with 3HA in N-terminus; not shown: 3HA tag at the N-terminus
T1 sequence: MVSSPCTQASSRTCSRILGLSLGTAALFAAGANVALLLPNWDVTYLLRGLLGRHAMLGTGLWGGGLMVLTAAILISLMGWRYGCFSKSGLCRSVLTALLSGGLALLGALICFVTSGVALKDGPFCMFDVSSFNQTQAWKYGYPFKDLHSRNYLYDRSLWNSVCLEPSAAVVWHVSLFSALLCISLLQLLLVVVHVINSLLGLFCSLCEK

B1: wild-type TM4SF19 in which 3Flag was tagged at the N-terminus (human TM4SF19) (other)
chain: MVSSPCTQASSRTCSRILGLSLGTAALFAAGANVALLLPNWDVTYLLRGLLGRHAMLGTGLWGGGLMVLTAAILISLMGWRYGCFSKSGLCRSVLTALLSGGLALLGALICFVTSGVALKDGPFCMFDVSSFNQTQAWKYGYPFKDLHSRNYLYDRSLWNSVCLEPSAAVVWHVSLFSALLCISLLQLLLVVVHVINSLLGLFCSLCEK
notes: Overexpressed in 293T cells (for the integrins: 293T or Raw 264.7 cells) and tested by immunoprecipitation; also called 3Flag-hTM4SF19; TM4SF19 wt; not shown: 3Flag tag at the N-terminus
B2: hTM4SF19 94-196Δ (3Flag-tagged deletion mutant lacking transmembrane 3, extracellular region 2 and transmembrane 4) (other)
chain: MVSSPCTQASSRTCSRILGLSLGTAALFAAGANVALLLPNWDVTYLLRGLLGRHAMLGTGLWGGGLMVLTAAILISLMGWRYGCFSKSGLCRSNSLLGLFCSLCEK
notes: the kept ranges are worked out from the printed deletion limits; not shown: 3Flag tag
B3: hTm4sf19 94-196 (only aa 94-196 of hTM4SF19 remains, other sequences deleted) (other)
chain: VLTALLSGGLALLGALICFVTSGVALKDGPFCMFDVSSFNQTQAWKYGYPFKDLHSRNYLYDRSLWNSVCLEPSAAVVWHVSLFSALLCISLLQLLLVVVHVI
notes: Expresses transmembrane 3, extracellular region 2 (EC2) and transmembrane 4 of TM4SF19; overexpressed in 293T cells; not shown: tag not expressly stated for this mutant (the other mutants carry 3Flag)

Experiments:
[1] = target: T1, TM4SF19 in which 3HA was tagged at the …; assay: immunoprecipitation, 3HA- and 3Flag-tagged TM4SF19 in 293T cells
Excerpt: To confirm whether TM4SF19 is involved in cell-to-cell interactions, HA- or flag-tagged TM4SF19 was manufactured. TM4SF19 in which 3HA was tagged at the N-terminus, a wild-type in which 3Flag was tagged at the N-terminus, and a TM4SF19-deletion mutant were subjected to transient overexpression in 293T cells to confirm binding through immunoprecipitation.

[2] = target: T1, TM4SF19 in which 3HA was tagged at the …; assay: immunoprecipitation, 293T cells
Excerpt: In the same manner as described above, by the transient overexpression of TM4SF19 in which 3HA was tagged at the N-terminus, a wild-type in which 3Flag was tagged at the N-terminus, and a TM4SF19 deletion mutant in 293T cells, binding was confirmed through immunoprecipitation.

| Binder | binding result [1] | binding result [2] |
| --- | --- | --- |
| B1 | binds | – |
| B2 | – | no binding |
| B3 | – | binds |
